Data from the RNAGym collection of RNA variant scans (doi:10.7554/elife.80360).

B1: HDV Ribozyme (parent)
chain: GGCCGGCAUGGUCCCAGCCUCCUCGCUGGCGCCGGCUGGGCAACAUUCCGAGGGGACCGUCCCCUCGGUAAUGGCGAAUGGGACCCA

Variants of: B1
Experiment: self-cleavage, relative activity (ratio to wild type); higher = more cleavage; co-transcriptional

| Variant | self-cleavage |
| --- | --- |
| G28U G68U | 0.0386 |
| U27A G55C | 0.864 |
| U27A G50C | 0.656 |
| U27A G50A | 0.967 |
| G28A C62U | 0.134 |
| U27C G39C | 0.166 |
| G29C C64U | 0.0594 |
| G29A C49U | 0.237 |
| G28A G53U | 0.0615 |
| G29A U46A | 0.156 |
| U27C A51U | 0.804 |
| G29C A45U | 0.0519 |
| G28C G81A | 0.104 |
| U27G G53A | 0.923 |
| U27G G53C | 1.01 |
| G28U G80A | 0.0681 |
| G29A A78U | 0.143 |
| U27A U60G | 0.59 |
| G28A U72C | 0.101 |
| G28A U72A | 0.119 |
| G28C C58A | 0.166 |
| G28C C58G | 0.0475 |
| U27G C49U | 0.957 |
| U27G U46G | 0.462 |

| Variant | self-cleavage |
| --- | --- |
| G29C C66U | 0.0573 |
| U27A C41G | 0.858 |
| G29A C61G | 0.107 |
| G28U G59U | 0.106 |
| G28U G59C | 0.136 |
| U27A C36G | 0.298 |
| G29C G31C | 0 |
| G29A A77U | 0.187 |
| G29A A71G | 0.032 |
| G28U A42G | 0.0426 |
| G28U A83G | 0.0569 |
| U27G A45G | 0.712 |
| U27G U47C | 0.383 |
| G28C C66U | 0 |
| G28C C66A | 0.122 |
| G28U A71G | 0.0554 |
| G29A A42G | 0.0415 |
| G29A A42U | 0.222 |
| U27A A83U | 0.88 |
| U27A A83G | 0.723 |
| U27C G31U | 0.161 |
| U27C G31A | 0.251 |
| U27A C33G | 0.287 |
| U27G C33G | 0.104 |

| Variant | self-cleavage |
| --- | --- |
| U27G G50U | 0.88 |
| U27G G50C | 0.6 |
| G29C A56U | 0.0755 |
| G28A C85U | 0.106 |
| G29C G35C | 0.0405 |
| U27G G39U | 0.222 |
| G29C C48A | 0 |
| G28U G39U | 0.119 |
| U27C U69A | 0.317 |
| G28A G82C | 0.0959 |
| G28C G50U | 0.0519 |
| G29C G52A | 0.0615 |
| G28C C30U | 0.0791 |
| G28U G81U | 0.202 |
| G28A C75A | 0.121 |
| U27C G40C | 0.415 |
| U27C G40A | 0.657 |
| U27G G52A | 1.02 |
| U27G G52U | 0.872 |
| G29A C66A | 0.191 |
| G28A G50U | 0.132 |
| G28A G50A | 0.0906 |
| U27C A45U | 0.532 |
| G29C A77U | 0.0369 |

| Variant | self-cleavage |
| --- | --- |
| U27A G34C | 0.0978 |
| U27A U79G | 0.831 |
| U27A U79A | 0.612 |
| G28C G82C | 0.0475 |
| G28C A56C | 0 |
| U27G U69A | 0.959 |
| U27C C64G | 0.652 |
| G29A A83C | 0.148 |
| U27C G74A | 0.193 |
| U27C A87G | 0.497 |
| G29A G74C | 0.0831 |
| U27A A77G | 1.15 |
| G28U U37A | 0.0773 |
| U27G U72A | 0.361 |
| U27A C58G | 0.831 |
| U27C U46A | 0.529 |
| G28C C64G | 0.0791 |
| G28U G52A | 0.0733 |
| G28U G52U | 0.211 |
| G29A U69C | 0.131 |
| G29A G81C | 0.0314 |
| G29A G81A | 0.138 |
| G28C C36U | 0.145 |
| G28A C30U | 0.113 |

| Variant | self-cleavage |
| --- | --- |
| G28A C30A | 0.149 |
| U27C C36A | 0.142 |
| U27G U37A | 0.119 |
| U27G U37G | 0.391 |
| G28A G68U | 0.0733 |
| U27A G67U | 0.799 |
| G29A C62U | 0.159 |
| U27G G68C | 0.87 |
| G28C G54U | 0.0248 |
| G28C G54C | 0.0519 |
| G28U C75G | 0.0302 |
| G28U C75U | 0.136 |
| G28U A78U | 0.0723 |
| U27A A71U | 0.906 |
| U27G C75G | 0.119 |
| U27G A56G | 1.06 |
| G28C A51U | 0.156 |
| G28A U79A | 0 |
| G28A C84A | 0.151 |
| U27A C44U | 0.482 |
| G28A C41G | 0.151 |
| G28C A77G | 0.119 |
| G28U C58A | 0.208 |
| G28U C58U | 0.185 |

| Variant | self-cleavage |
| --- | --- |
| G29A G53A | 0.217 |
| G29A G53C | 0.134 |
| U27C G80A | 0.237 |
| U27C C75G | 0 |
| U27C A77G | 0.798 |
| U27C U37G | 0.0923 |
| U27C U37C | 0.856 |
| G29A U79G | 0.154 |
| G29A C63A | 0.147 |
| G28U G29A | 0.0755 |
| G29A G34A | 0.131 |
| G29A G34C | 0.148 |
| G29A U37G | 0.0723 |
| G28C A78U | 0.0811 |
| U27G G74U | 0.151 |
| G29C G54C | 0.0692 |
| G29A C41U | 0.25 |
| G29A C41A | 0.0405 |
| G28U A77G | 0.111 |
| G28A G80C | 0.0396 |
| G28A G80A | 0.188 |
| U27G A51U | 0.677 |
| G29C C57U | 0.0604 |
| G28C C86U | 0 |

| Variant | self-cleavage |
| --- | --- |
| G28A C33G | 0.149 |
| G28A C33U | 0.0234 |
| U27A C85A | 0.957 |
| U27A C85U | 0.684 |
| G28C G76U | 0.0378 |
| U27A A70G | 0.987 |
| U27A G31U | 0.244 |
| G29A C58A | 0.318 |
| U27G C64U | 0.72 |
| U27C A70C | 0.604 |
| G28A G74C | 0.0845 |
| G28A G74U | 0.0432 |
| G28A A87G | 0.0492 |
| G28A A77C | 0.119 |
| G28C G74A | 0.108 |
| U27G G67C | 0.653 |
| U27A C75A | 0.147 |
| G28U A70G | 0.0707 |
| G28U A70C | 0.131 |
| G28A G59A | 0.0573 |
| U27A C63A | 0.95 |
| U27A G82C | 0.322 |
| U27C G68U | 0.642 |
